Results from patent publication US20230038638A1, “COMPLEMENT FACTOR I-RELATED COMPOSITIONS AND METHODS” (published 2023).

Legend:
human C4b (human) [1] = biological target: T1, human C4b (human) (UniProt P0C0L4)
T1 sequence: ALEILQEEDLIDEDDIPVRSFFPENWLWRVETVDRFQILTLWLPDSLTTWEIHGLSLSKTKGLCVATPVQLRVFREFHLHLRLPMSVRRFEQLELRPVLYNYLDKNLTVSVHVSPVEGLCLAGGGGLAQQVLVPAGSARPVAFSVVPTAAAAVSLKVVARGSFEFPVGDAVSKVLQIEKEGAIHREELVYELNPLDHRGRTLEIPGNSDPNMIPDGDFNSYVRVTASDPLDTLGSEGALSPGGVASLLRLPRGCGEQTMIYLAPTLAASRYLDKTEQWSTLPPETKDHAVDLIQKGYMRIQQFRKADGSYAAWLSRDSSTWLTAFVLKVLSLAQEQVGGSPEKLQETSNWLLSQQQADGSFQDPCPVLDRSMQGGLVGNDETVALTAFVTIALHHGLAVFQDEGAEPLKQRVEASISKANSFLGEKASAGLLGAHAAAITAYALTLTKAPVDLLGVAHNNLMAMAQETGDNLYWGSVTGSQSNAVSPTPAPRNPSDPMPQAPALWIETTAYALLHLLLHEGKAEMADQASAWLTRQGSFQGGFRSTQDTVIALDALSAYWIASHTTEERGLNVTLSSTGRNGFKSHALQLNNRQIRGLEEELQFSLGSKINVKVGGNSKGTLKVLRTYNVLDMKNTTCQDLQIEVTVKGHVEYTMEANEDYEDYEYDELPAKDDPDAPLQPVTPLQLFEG

[2] = biological target: soluble human C3b (human) (UniProt P01024)
human C4b (human) [3] = biological target: T1, human C4b (human); remark: listed apart in the source
[4] = biological target: soluble human C3b (human) (UniProt P01024); remark: listed apart in the source

C4b Screen Ref Fold (fold of CFI-HSA wild type) (human C4b (human) [1]) | iC3b Screen Ref Fold (fold of CFI-HSA wild type) [2] | C4c EC50 (nM) (human C4b (human) [3]) | iC3b EC50 [4] [nM] | C4b Screen Ref Fold (fold of reference) (human C4b (human) [1]) | iC3b Screen Ref Fold (fold of reference) [2] | C4c EC50 (human C4b (human) [3]) [nM] | Substance
0.08 | 3.07 | > 1000 | 5.2 |  |  |  | CFI-HSA variant K504R; E530F; D425K; P558G (enzyme)
0.05 | 2.91 | > 1000 | 5.7 |  |  |  | CFI-HSA variant K504R; E530F; D425K; P558S (enzyme)
3.92 | 1.98 | 6.9 | 2.4 |  |  |  | CFI-HSA variant K504R; E530F; D425K; P558S; E457G; E461Q; N531G (enzyme)
0.02 | 2.97 | > 1000 | 6.2 |  |  |  | CFI-HSA variant K504R; E530F; D425R; P558G (enzyme)
0.09 | 3 | > 1000 | 5.2 |  |  |  | CFI-HSA variant K504R; E530F; D425R; P558S (enzyme)
3.91 | 1.8 | 16.2 | 4.6 |  |  |  | CFI-HSA variant K504R; E530F; E457G; E461Q; N531G (enzyme)
4.03 | 2.12 | 9 | 5.5 |  |  |  | CFI-HSA variant K504R; P558S; E457G; E461Q; N531G (enzyme)
 |  | > 1000 | 43.7 | 0.45 | 0.25 |  | CFI-HSA variant K504S (enzyme)
 |  | > 1000 | 43.5 | 0.1 | 0.73 |  | CFI-HSA variant K504T (enzyme)
 |  | > 1000 | 104 | 0.07 | 0.21 |  | CFI-HSA variant K504V (enzyme)
 |  | > 1000 | 48.7 | 0.27 | 0.12 |  | CFI-HSA variant K504W (enzyme)
 |  | 196 | 51.6 | 2.86 | 0.18 |  | CFI-HSA variant K504Y (enzyme)
0.88 | 1.34 | 238 | 25.5 |  |  |  | CFI-HSA variant N422G (enzyme)
3.85 | 2.84 | 5 | 2.5 |  |  |  | CFI-HSA variant N422K; E457G; E461Q; Q467K; N531G (enzyme)
1.69 | 1.61 | 156 | 17.5 |  |  |  | CFI-HSA variant N460G (enzyme)
 |  | 223 | 13 | 3.03 | -0.01 |  | CFI-HSA variant N531K (enzyme)

C4b Screen Ref Fold (fold of CFI-HSA wild type) (human C4b (human) [1]) | iC3b Screen Ref Fold (fold of CFI-HSA wild type) [2] | C4c EC50 (nM) (human C4b (human) [3]) | iC3b EC50 [4] [nM] | C4b Screen Ref Fold (fold of reference) (human C4b (human) [1]) | iC3b Screen Ref Fold (fold of reference) [2] | C4c EC50 (human C4b (human) [3]) [nM] | Substance
 |  | 219 | 17.6 | 3.47 | 1.04 |  | CFI-HSA variant N531L (enzyme)
 |  | 99.8 | 21.2 | 2.48 | 0 |  | CFI-HSA variant N531M (enzyme)
3.97 | 1.87 | 7.1 | 5 |  |  |  | CFI-HSA variant P558G; E457G; E461Q; N531G (enzyme)
4.21 | 1.89 | 7.2 | 4.3 |  |  |  | CFI-HSA variant P558S; E457G; E461Q; N531G (enzyme)
 |  | 920 | 60.5 | 0.19 | 0.56 |  | CFI-HSA variant R456N (enzyme)
 |  | 147 | 16.4 | 6.1 | 1.01 |  | CFI-HSA variant T377G (enzyme)
3.37 | 0.77 | 47.8 | 12 |  |  |  | CFI-HSA variant T377G; E416A; K504H (enzyme)
4.08 | 2.12 | 23.3 | 3.4 |  |  |  | CFI-HSA variant T377G; E457G; E461Q; F464Y; N531G (enzyme)
4.5 | 2.05 | 3.5 | 4.2 |  |  |  | CFI-HSA variant T377G; E457G; E461Q; R462K; F464Y; N531G (enzyme)
3.01 | 0.95 | 50.1 | 15.7 |  |  |  | CFI-HSA variant T377G; K504H (enzyme)
3.44 | 1.06 | 6.3 | 6.6 |  |  |  | CFI-HSA variant T377G; Y408L; E457G; E461Q; R462K; N531G (enzyme)
 |  |  | > 500 | 0.32 | 0 | > 1000 | CFI-HSA variant W381G (enzyme)
 |  | 338 | 47.8 | 3.55 | 0.41 |  | CFI-HSA variant Y403F (enzyme)
4.41 | 2.21 | 20.4 | 5.1 |  |  |  | CFI-HSA variant Y408F; E457G; E461Q; R462K; E530Y; N531G; P558S (enzyme)
 |  | 930 | 29.1 | 0.17 | 1.21 |  | CFI-HSA variant Y408M (enzyme)
 |  | 530 | 49.1 | 0.05 | 0.84 |  | CFI-HSA variant Y408Q (enzyme)
